{"source": "paper PMC7817830", "about": "“SUMOylation disassembles the tetrameric pyruvate kinase M2 to block myeloid differentiation of leukemia cells” (Cell Death & Disease, 2021)", "proteins": {"B1": {"name": "Flag-tagged K270R mutant PKM2 expressed in 32D BCR-ABL cells (enzyme)", "chain": "not shown", "notes": "pyruvate kinase, M2 isoform (PKM2); also called PKM2^K270R; KR; source: 32D BCR-ABL cells, ectopically expressed, in lysate"}}, "target": "the molecule itself", "test": "SEC; cell lysate of 32D BCR-ABL cells on Superdex 200 10/300GL, 50 mM phosphate, 0.15 M NaCl, pH 7.2; fractions by UV absorbance and western blot", "data": [{"protein": "B1", "values": [{"measurement": "stoichiometry N", "result": 4}]}]}
